± gives the standard deviation of the averaged measurements.
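Also: ATP exposure 15 min at 22 °C before imaging.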

For the series, the system named is ATP. Nature of the series: switch fluorescence ratio, 500 uM ATP over buffer (Cy3 cluster intensity, sum of 5 cycles each) (fold (ratio)); higher = stronger signal-on switching upon ATP binding; sequences stand for … in TCGTCGGCAGCGTCAGATGTGTATAAGAGACAGTTTTTTTTTTTTTTTTTTTTTTTTT…TC. The following applies: aptamer strand: ATP DNA aptamer (quencher-CACCTGGGGGAGTATTGCGGAGGAAGG + anchor), 100 nM annealed; ATP concentration: 500 uM. In outline: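 Five buffer/ATP imaging cycles were run on Cy3-labelled switching-strand clusters on a modified Illumina MiSeq flow-cell, with NaOH stripping and re-annealing between cycles. In each cycle, clusters annealed to 100 nM quencher-labelled ATP aptamer were imaged in selection buffer, then after 15 min with 500 uM ATP at 22 °C. Per cluster, the fluorescence ratio is summed target-cycle over summed buffer-cycle Cy3 intensity, averaged per switch-domain sequence. Only clusters within 100-1000 RFU were kept.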
TTTTTTTAAC: the switch fluorescence ratio was 0.999 ± 0.032.
As for TCATTTCAGG, the switch fluorescence ratio worked out at 1.01 ± 0.012.
For the sequence ATTTTACGAA, the switch fluorescence ratio was 1.028 ± 0.0065.
In the case of GCCAGGGGTG, the switch fluorescence ratio was 1.47 ± 0.033.
The same measure for CAGGCGGCG: 0.991 ± 0.017; for CTTCTTTCTC: 1.051 ± 0.0084.
Turning to CGTATTAAGC, the switch fluorescence ratio worked out at 0.955 ± 0.015.
Take TAAGTGGAAA: the switch fluorescence ratio turned out to be 0.992 ± 0.05.
The value for GTTTTGGGAC was 0.993 ± 0.027; that for ACTCTTGTTT was 1.03 ± 0.014.
The same measure for GCATTAGGGC: 1.07 ± 0.14.
The value for GGTAGATGCG was 1.03 ± 0.04; that for AAAAACTAGT was 1.04 ± 0.035; that for AGACATCCTT was 1.04 ± 0.014.
For the sequence TTACTATTTG, the switch fluorescence ratio came to 0.961 ± 0.052.
For the sequence ACCCGGATGG, the switch fluorescence ratio was determined as 1.01 ± 0.021.
The same measure for CGAAAAAAAT: 1.03 ± 0.035; for TAGATGCACA: 0.9516 ± 0.0037.
The same measure for TTTTCACTGG: 1.01 ± 0.017; for GAGAATAGAG: 0.989 ± 0.022; for TTTTAATCCA: 1.01 ± 0.033.
The same measure for TTGGTGTGTT: 1.01 ± 0.013; for GGGGGTACGC: 1.03 ± 0.028; for GGGGGAGGCC: 1.02 ± 0.056.
Take GGATTTGTGA: the switch fluorescence ratio was 1.02 ± 0.022.
The value for TGTAAGAGCG was 0.9934 ± 0.0022; that for ACAACAGCAC was 1.18 ± 0.03.
GGCTCATTAT: the switch fluorescence ratio is 0.9719 ± 0.0034.
In the case of TGACTTTTTC, the switch fluorescence ratio was found to be 1.03 ± 0.016.
The same measure for GACAACAAGG: 1.047 ± 0.0089; for CTTTTACATG: 1.003 ± 0.0095; for TGGGAATTGG: 0.981 ± 0.012.
The same measure for GAAAGTGCAA: 1.09 ± 0.02.
The value for TTTGAAGACA was 0.991 ± 0.028.
With CGTATAAGAG, the switch fluorescence ratio came out at 0.991 ± 0.027.
Take ACATTGTGCG: the switch fluorescence ratio was 0.969 ± 0.048.
The same measure for ATGTCAGGGT: 0.9732 ± 0.0086; for GGGTATTATT: 1.022 ± 0.0047.
Take TTATAATGCC: the switch fluorescence ratio amounted to 0.997 ± 0.078.
For the sequence TTCGTGCCAG, the switch fluorescence ratio turned out to be 1.01 ± 0.043.
The same measure for GGCTCTTCGG: 0.989 ± 0.04; for TTGTAATGGG: 0.988 ± 0.019; for GACTGGGACT: 1.08 ± 0.05.
On to AAAACTTCTT, for which the switch fluorescence ratio was 1 ± 0.013.
Consider AGTATTCTG, for which the switch fluorescence ratio was found to be 0.961 ± 0.04.
Turning to CAGGTATGT, the switch fluorescence ratio is 0.991 ± 0.015.
The same measure for TTTTGACAGT: 0.996 ± 0.039.
The value for TATGAGGGGT was 1.13 ± 0.047.
The same measure for GGATGAGTGT: 0.982 ± 0.038; for TCGCTAGATG: 1.4 ± 0.52.
Turning to ATATTTGCTT, the switch fluorescence ratio was determined as 1 ± 0.025.
The same measure for CAAGGGTCGG: 0.996 ± 0.033; for TCGTGGGAAA: 2.11 ± 1.5.
The value for CTAGGGGATT was 1.02 ± 0.011; that for AAGAGAGAGC was 0.989 ± 0.007; that for TCTGGGAGGG was 1.03 ± 0.047.
The value for AATGTAGGCT was 1.03 ± 0.027; that for GGGATTACGT was 1.03 ± 0.029.
AGGCAACCAA: the switch fluorescence ratio came to 1.02 ± 0.017.
With GAATAAAATA, the switch fluorescence ratio was determined as 1.02 ± 0.039.
The same measure for TAAGAATTTG: 1.22 ± 0.34; for CAAGCTAGCG: 1.04 ± 0.016; for GATTGTGATG: 0.9724 ± 0.0055.
In the case of GGGGGTCATG, the switch fluorescence ratio stood at 1.02 ± 0.073.
For TTGGGGGATG, the switch fluorescence ratio is 0.985 ± 0.0088.
The same measure for TGCAATTAAC: 3.51 ± 0.17; for CGTTGGGTCT: 1 ± 0.018; for ATGCGCGGTA: 1.01 ± 0.068.
The value for TTTTGGTGG was 0.974 ± 0.033; that for TGTTAAAATT was 0.969 ± 0.063; that for AGAGTTAACG was 0.97158 ± 0.00066.
The same measure for CTGGGTGTAT: 0.984 ± 0.063; for CTCTGGGCGG: 0.988 ± 0.039; for AGGTTGGCGT: 0.995 ± 0.029.
Regarding CTGGGGAGGG, the switch fluorescence ratio worked out at 1 ± 0.048.
The same measure for GGGCGAAGTC: 0.975 ± 0.03; for CGTCATATTA: 1.008 ± 0.0025.
The same measure for CATACCGGGG: 1.025 ± 0.0049.

The values are drawn from the supplement of paper PMC10126150.
